Laboratory results published in patent US20250206828A1, “ANTI-ADENOSINE RECEPTOR (A2aR) ANTIBODIES AND THE USE THEREOF” (Adept Therapeutics Inc., priority 2022, published 2025).
Substitutions are numbered along the chain they refer to. Numbers in names are those of the source. Like-named read-outs stand apart in the source and are kept apart here.

B1: Hu1B5-H1/Hu1B5-L4 (antibody, human IgG1, V domains shown)
VH: QVQLVQSGAEVKKPGASVKVSCKASGFTFTRFWMNWVRQAPGQGLEWMGRIDPYDSETQYNHKFWDRVTMTRDTSTSTVYMELSSLRSEDTAVYYCGRSLYGKGDYWGQGTTVTVSS
VL: DVVMTQSPLSLPVTPGEPASISCRSSQSIVHSNGNTYLEWYLQKPGQSPQLLIYKVSNRFSGVPDRFSGSGSGTDFTLKISRVEAEDVGVYYCFQGSHVPLTFGGGTKVEIK
notes: Human IgG1 FES (L234F, L235E, P331S) and human Ig kappa constant domains
B2: Hu1B5-H2.1/Hu1B5-L4 (antibody, human IgG1, V domains shown)
VH: B1 VH with Q1E, A24T, M48I, R72V
VL: B1 VL
notes: as for B1
B3: Hu1B5-H2/Hu1B5-L4 (antibody, human IgG1, V domains shown)
VH: B1 VH with Q1E, A24T, R72V
VL: B1 VL
notes: as for B1
B4: Hu1B5-H3/Hu1B5-L4 (antibody, human IgG1, V domains shown)
VH: B1 VH with Q1E, A24T, M48I, V68A, M70L, R72V, T76S
VL: B1 VL
notes: as for B1
B5: Hu1B5-H4/Hu1B5-L4 (antibody, human IgG1, V domains shown)
VH: B1 VH with Q1E, A24T, M48I, V68A, M70L, R72V, T74K, T76S
VL: B1 VL
notes: as for B1
B6: Hu1B5-H5/Hu1B5-L4 (antibody, human IgG1, V domains shown)
VH: B1 VH with Q1E, A24T, M48I, N61A, V68A, M70L, R72V, T74K, T76S
VL: B1 VL
notes: as for B1
B7: Hu1B5-H1/Hu1B5-L1 (antibody, human IgG1, V domains shown)
VH: B1 VH
VL: B1 VL with P15L, E17Q, Y41F, L42Q, K44R, Q50R, L51R
notes: as for B1
B8: Hu1B5-H2.1/Hu1B5-L5 (antibody, human IgG1, V domains shown)
VH: B1 VH with Q1E, A24T, M48I, R72V
VL: DIVMTQSPDSLAVSLGERATINCRSSQSIVHSNGNTYLEWYQQKPGQPPKLLIYKVSNRFSGVPDRFSGSGSGTDFTLTISSLQAEDVAVYYCFQGSHVPLTFGGGTKVEIK
notes: as for B1
B9: Hu1B5-H1/Hu1B5-L5 (antibody, human IgG1, V domains shown)
VH: B1 VH
VL: B8 VL
notes: as for B1
B10: Hu1B5-H2/Hu1B5-L5 (antibody, human IgG1, V domains shown)
VH: B1 VH with Q1E, A24T, R72V
VL: B8 VL
notes: as for B1
B11: Hu1B5-H3/Hu1B5-L5 (antibody, human IgG1, V domains shown)
VH: B1 VH with Q1E, A24T, M48I, V68A, M70L, R72V, T76S
VL: B8 VL
notes: as for B1
B12: Hu1B5-H4/Hu1B5-L5 (antibody, human IgG1, V domains shown)
VH: B1 VH with Q1E, A24T, M48I, V68A, M70L, R72V, T74K, T76S
VL: B8 VL
notes: as for B1
B13: Hu1B5-H5/Hu1B5-L5 (antibody, human IgG1, V domains shown)
VH: B1 VH with Q1E, A24T, M48I, N61A, V68A, M70L, R72V, T74K, T76S
VL: B8 VL
notes: as for B1
B14: Hu1B5-H2.1/Hu1B5-L2 (antibody, human IgG1, V domains shown)
VH: B1 VH with Q1E, A24T, M48I, R72V
VL: B1 VL with P15L, E17Q, L42Q, K44R, Q50R, L51R
notes: as for B1
B15: Hu1B5-H2.1/Hu1B5-L3 (antibody, human IgG1, V domains shown)
VH: B1 VH with Q1E, A24T, M48I, R72V
VL: B1 VL with P15L, E17Q, L42Q, K44R, Q50R
notes: as for B1
B16: Hu1B5-H3/Hu1B5-L2 (antibody, human IgG1, V domains shown)
VH: B1 VH with Q1E, A24T, M48I, V68A, M70L, R72V, T76S
VL: B1 VL with P15L, E17Q, L42Q, K44R, Q50R, L51R
notes: as for B1
B17: Hu1B5-H3/Hu1B5-L3 (antibody, human IgG1, V domains shown)
VH: B1 VH with Q1E, A24T, M48I, V68A, M70L, R72V, T76S
VL: B1 VL with P15L, E17Q, L42Q, K44R, Q50R
notes: as for B1
B18: Hu1B5-H4/Hu1B5-L2 (antibody, human IgG1, V domains shown)
VH: B1 VH with Q1E, A24T, M48I, V68A, M70L, R72V, T74K, T76S
VL: B1 VL with P15L, E17Q, L42Q, K44R, Q50R, L51R
notes: as for B1
B19: Hu1B5-H4/Hu1B5-L3 (antibody, human IgG1, V domains shown)
VH: B1 VH with Q1E, A24T, M48I, V68A, M70L, R72V, T74K, T76S
VL: B1 VL with P15L, E17Q, L42Q, K44R, Q50R
notes: as for B1
B20: Hu1B5-H5/Hu1B5-L2 (antibody, human IgG1, V domains shown)
VH: B1 VH with Q1E, A24T, M48I, N61A, V68A, M70L, R72V, T74K, T76S
VL: B1 VL with P15L, E17Q, L42Q, K44R, Q50R, L51R
notes: as for B1
B21: Hu1B5-H5/Hu1B5-L3 (antibody, human IgG1, V domains shown)
VH: B1 VH with Q1E, A24T, M48I, N61A, V68A, M70L, R72V, T74K, T76S
VL: B1 VL with P15L, E17Q, L42Q, K44R, Q50R
notes: as for B1
B22: Hu1B5-H1/Hu1B5-L3 (antibody, human IgG1, V domains shown)
VH: B1 VH
VL: B1 VL with P15L, E17Q, L42Q, K44R, Q50R
notes: as for B1
B23: Hu1B5-H6/Hu1B5-L2 (antibody, human IgG1, V domains shown)
VH: EVQLVQSGAEVKKPGESLRISCKTSGFTFTRFWMNWVRQMPGKGLEWIGRIDPYDSETQYNHKFWDHATLSVDKSSSTVYLQWSSLKASDTAMYYCGRSLYGKGDYWGQGTTVTVSS
VL: B1 VL with P15L, E17Q, L42Q, K44R, Q50R, L51R
notes: as for B1
B24: Hu1B5-H6/Hu1B5-L3 (antibody, human IgG1, V domains shown)
VH: B23 VH
VL: B1 VL with P15L, E17Q, L42Q, K44R, Q50R
notes: as for B1
B25: Hu3F6-H4/Hu3F6-L2 (antibody, human IgG1, V domains shown)
VH: EVQLVQSGAEVKKPGASVKVSCKTSGFAFTSYWMNWVRQAPGQGLEWIGRIDPSDSEAHYHHKFWGRATLTVDKSSSTVYMELSSLRSEDTAVYYCLRSLYGKGDYWGHGTTVTVSS
VL: B1 VL with P15L, E17Q, I29L, S32R, L42Q, K44R, Q50R, L51R, F94Y
notes: as for B1
B26: Hu3F6-H4/Hu3F6-L3 (antibody, human IgG1, V domains shown)
VH: B25 VH
VL: B1 VL with P15L, E17Q, I29L, S32R, L42Q, K44R, Q50R, F94Y
notes: as for B1
B27: Hu3F6-H4/Hu3F6-L4 (antibody, human IgG1, V domains shown)
VH: B25 VH
VL: B1 VL with V2I, S7T, P12S, E17Q, I29L, S32R, F94Y
notes: as for B1
B28: Hu3F6-H4/Hu3F6-L5 (antibody, human IgG1, V domains shown)
VH: B25 VH
VL: B1 VL with S7T, P12S, E17Q, I29L, S32R, F94Y
notes: as for B1
B29: Hu3F6-H4/Hu3F6-L6 (antibody, human IgG1, V domains shown)
VH: B25 VH
VL: B1 VL with V2I, S7T, L9P, T14N, I29L, S32R, T74S, R82W, F94Y
notes: as for B1
B30: Hu3F6-H4/Hu3F6-L7 (antibody, human IgG1, V domains shown)
VH: B25 VH
VL: B1 VL with S7T, L9P, T14N, I29L, S32R, T74S, R82W, F94Y
notes: as for B1
B31: Hu3F6-H5/Hu3F6-L6 (antibody, human IgG1, V domains shown)
VH: B25 VH with H61A
VL: B1 VL with V2I, S7T, L9P, T14N, I29L, S32R, T74S, R82W, F94Y
notes: as for B1
B32: Hu3F6-H5/Hu3F6-L7 (antibody, human IgG1, V domains shown)
VH: B25 VH with H61A
VL: B1 VL with S7T, L9P, T14N, I29L, S32R, T74S, R82W, F94Y
notes: as for B1

Assays:
[1] = target: T1, human adenosine A2A receptor (A2aR) (human, UniProt P29274 1-412); test: flow cytometry, HEK293-hA2aR cells, supernatant 1 ug/ml
T1 construct: Assays used HEK293 cells stably overexpressing human A2aR (BPS Bioscience 79381), human A2aR-expressing CHO cells, or endogenous A2aR on human PBMC; also called human A2aR; hA2aR

[2] = target: T1, human adenosine A2A receptor (A2aR); test: as above; remark: listed apart in the source

T1 sequence (P29274 whole entry): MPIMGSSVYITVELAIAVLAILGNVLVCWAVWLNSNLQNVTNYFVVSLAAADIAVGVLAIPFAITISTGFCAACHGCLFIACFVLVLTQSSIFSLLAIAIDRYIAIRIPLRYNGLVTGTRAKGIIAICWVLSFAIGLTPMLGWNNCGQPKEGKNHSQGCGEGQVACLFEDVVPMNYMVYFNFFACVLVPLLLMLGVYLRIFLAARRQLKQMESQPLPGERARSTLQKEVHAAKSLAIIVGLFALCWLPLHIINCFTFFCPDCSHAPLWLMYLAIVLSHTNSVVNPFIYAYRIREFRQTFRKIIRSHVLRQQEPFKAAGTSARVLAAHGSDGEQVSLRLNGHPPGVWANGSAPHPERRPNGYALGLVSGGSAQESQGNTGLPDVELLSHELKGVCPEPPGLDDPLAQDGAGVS

Binder | MFI [1] | MFI [2]
B1 | 1570 MFI | –
B2 | 1720 MFI | –
B3 | 1630 MFI | –
B4 | 1550 MFI | –
B5 | 1780 MFI | –
B6 | 1710 MFI | –
B7 | 34 MFI | –
B8 | 960 MFI | –
B9 | 481 MFI | –
B10 | 728 MFI | –
B11 | 686 MFI | –
B12 | 872 MFI | –
B13 | 823 MFI | –
B14 | 225 MFI | –
B15 | 1860 MFI | –
B16 | 231 MFI | –

Binder | MFI [1] | MFI [2]
B17 | 1850 MFI | –
B18 | 263 MFI | –
B19 | 1860 MFI | –
B20 | 283 MFI | –
B21 | 1950 MFI | –
B22 | 1840 MFI | –
B23 | 359 MFI | –
B24 | 1910 MFI | –
B25 | – | 255 MFI
B26 | – | 1960 MFI
B27 | – | 1450 MFI
B28 | – | 1990 MFI
B29 | – | 1960 MFI
B30 | – | 1880 MFI
B31 | – | 1840 MFI
B32 | – | 1890 MFI
